Assay results from patent US20160264649A1.

Key:
Experiment in all cases: cell-based or functional assay
[1] = molecular target: HIV-1 MGRM-AG-013 Env (HIV-1)
[2] = molecular target: HIV-1 MGRM-C-009 Env on pseudovirus (HIV-1)
[3] = molecular target: HIV-1 MGRM-C-008 Env on pseudovirus (HIV-1)
[4] = molecular target: HIV-1 QH0692.42 (Acute) Env on pseudovirus (HIV-1)
[5] = molecular target: HIV-1 JRCSF Env on pseudovirus (HIV-1) (UniProt P20871)
[6] = molecular target: HIV-1 NL43 Env on pseudovirus (HIV-1)
[7] = molecular target: HIV-1 NL43 Env (HIV-1)
[8] = molecular target: HIV-1 MGRM-AG-005 Env (HIV-1)
[9] = molecular target: HIV-1 92UG046 Env (HIV-1)
[10] = molecular target: HIV-1 MGRM-AE-008 Env (HIV-1)
[11] = molecular target: HIV-1 MGRM-D-029 Env (HIV-1)
[12] = molecular target: HIV-1 MGRM-D-014 Env (HIV-1)
[13] = molecular target: HIV-1 MGRM-AG-012 Env (HIV-1)
[14] = molecular target: HIV-1 93IN905 Env on pseudovirus (HIV-1)
[15] = molecular target: HIV-1 SC422661.8 (Acute) Env on pseudovirus (HIV-1)
[16] = molecular target: HIV-1 MGRM-AG-006 Env (HIV-1)
[17] = molecular target: HIV-1 MGRM-F1-017 Env (HIV-1)
[18] = molecular target: HIV-1 98CN009 Env on pseudovirus (HIV-1)
[19] = molecular target: HIV-1 MGRM-C-007 Env on pseudovirus (HIV-1)
[20] = molecular target: HIV-1 MGRM-D-002 Env (HIV-1)
[21] = molecular target: HIV-1 MGRM-G-015 Env (HIV-1)
[22] = molecular target: HIV-1 LAVIC_18 Env on pseudovirus (HIV-1)
[23] = molecular target: HIV-1 MGRM-D-024 Env (HIV-1)
[24] = molecular target: HIV-1 MGRM-D-021 Env (HIV-1)
[25] = molecular target: HIV-1 MGRM-C-025 Env on pseudovirus (HIV-1)
[26] = molecular target: HIV-1 MGRM-D-013 Env (HIV-1)
[27] = molecular target: HIV-1 MGRM-C-014 Env on pseudovirus (HIV-1)
[28] = molecular target: HIV-1 MGRM-A-010 Env (HIV-1)
[29] = molecular target: HIV-1 92RW021 Env (HIV-1)
[30] = molecular target: HIV-1 MGRM-A-008 Env (HIV-1)
[31] = molecular target: HIV-1 93UG077 Env (HIV-1)
[32] = molecular target: HIV-1 94UG103 Env (HIV-1)
[33] = molecular target: HIV-1 MGRM-A-006 Env (HIV-1)
[34] = molecular target: HIV-1 MGRM-A-007 Env (HIV-1)
[35] = molecular target: HIV-1 MGRM-A-001 Env (HIV-1)
[36] = molecular target: HIV-1 MGRM-A-009 Env (HIV-1)
[37] = molecular target: HIV-1 92RW009 Env (HIV-1)
[38] = molecular target: HIV-1 MGRM-A-003 Env (HIV-1)
[39] = molecular target: HIV-1 92UG037 Env (HIV-1)
[40] = molecular target: HIV-1 MGRM-A-005 Env (HIV-1)
[41] = molecular target: HIV-1 MGRM-A-013 Env (HIV-1)
[42] = molecular target: HIV-1 92RW024 Env (HIV-1)
[43] = molecular target: HIV-1 93RW029 Env (HIV-1)
[44] = molecular target: HIV-1 MGRM-A-014 Env (HIV-1)
[45] = molecular target: HIV-1 MGRM-A-012 Env (HIV-1)
[46] = molecular target: HIV-1 92RW008 Env (HIV-1)
[47] = molecular target: HIV-1 92RW026 Env (HIV-1)
[48] = molecular target: HIV-1 VLGCA1 Env (HIV-1)
[49] = molecular target: HIV-1 MGRM-A-004 Env (HIV-1)
[50] = molecular target: HIV-1 MGRM-A-002 Env (HIV-1)
[51] = molecular target: HIV-1 94KE105 Env (HIV-1)
[52] = molecular target: HIV-1 92RW020 Env (HIV-1)
[53] = molecular target: HIV-1 MGRM-A-011 Env (HIV-1)
[54] = molecular target: HIV-1 92UG031 Env (HIV-1)

## 2G12 (antibody)
[1]
  IC50 (µg/ml), pseudovirus neutralization: 0.95 µg/mL
[2]
  IC50: > 50 µg/mL
[3]
  IC50: > 50 µg/mL
[4]
  IC50: 4.39 µg/mL
[5]
  IC50: 0.37 µg/mL
[6]
  IC50: 0.49 µg/mL
[7]
  neutralization IC50: 0.75 µg/mL
  neutralization IC90: 15.8 µg/mL
[8]
  IC50 (µg/ml), pseudovirus neutralization: > 50 µg/mL
[9]
  IC50 (µg/ml), pseudovirus neutralization: > 50 µg/mL
[10]
  IC50 (µg/ml), pseudovirus neutralization: > 50 µg/mL
[11]
  IC50 (µg/ml), pseudovirus neutralization: > 50 µg/mL
[12]
  IC50 (µg/ml), pseudovirus neutralization: > 50 µg/mL
[13]
  IC50 (µg/ml), pseudovirus neutralization: 1.94 µg/mL
[14]
  IC50: > 50 µg/mL
[15]
  IC50: 0.84 µg/mL
[16]
  IC50 (µg/ml), pseudovirus neutralization: 3.92 µg/mL
[17]
  IC50 (pseudovirus neutralization): > 50 µg/mL
[18]
  IC50: > 50 µg/mL
[19]
  IC50: > 50 µg/mL
[20]
  IC50 (µg/ml), pseudovirus neutralization: > 50 µg/mL
[21]
  IC50 (µg/ml), pseudovirus neutralization: > 50 µg/mL
[22]
  IC50: > 50 µg/mL
[23]
  IC50 (µg/ml), pseudovirus neutralization: > 50 µg/mL
[24]
  IC50 (µg/ml), pseudovirus neutralization: 23 µg/mL
[25]
  IC50: > 50 µg/mL
[26]
  IC50 (µg/ml), pseudovirus neutralization: > 50 µg/mL
[27]
  IC50: > 50 µg/mL
[28]
  neutralization IC50: 17 µg/mL
[29]
  neutralization IC50: > 50 µg/mL
[30]
  neutralization IC50: > 50 µg/mL
[31]
  neutralization IC50: > 50 µg/mL
[32]
  neutralization IC50: 48.1 µg/mL
[33]
  neutralization IC50: 13.8 µg/mL
[34]
  neutralization IC50: > 50 µg/mL
[35]
  neutralization IC50: > 50 µg/mL
[36]
  neutralization IC50: 7.47 µg/mL
[37]
  neutralization IC50: 26.1 µg/mL
[38]
  neutralization IC50: > 50 µg/mL
[39]
  neutralization IC50: 45.2 µg/mL
[40]
  neutralization IC50: > 50 µg/mL
[41]
  neutralization IC50: > 50 µg/mL
[42]
  neutralization IC50: > 50 µg/mL
[43]
  neutralization IC50: > 50 µg/mL
[44]
  neutralization IC50: > 50 µg/mL
[45]
  neutralization IC50: > 50 µg/mL
[46]
  neutralization IC50: 22.5 µg/mL
[47]
  neutralization IC50: 17.2 µg/mL
[48]
  neutralization IC50: > 50 µg/mL
[49]
  neutralization IC50: > 50 µg/mL
[50]
  neutralization IC50: > 50 µg/mL
[51]
  neutralization IC50: 7.22 µg/mL
[52]
  neutralization IC50: 0.48 µg/mL
[53]
  neutralization IC50: > 50 µg/mL
[54]
  neutralization IC50: > 50 µg/mL

## 1495_C14 (PGC14) (antibody)
[1]
  IC50 (µg/ml), pseudovirus neutralization: > 50 µg/mL
[2]
  IC50: > 50 µg/mL
[3]
  IC50: > 50 µg/mL
[4]
  IC50: > 50 µg/mL
[5]
  IC50: 15 µg/mL
[6]
  IC50: 40 µg/mL
[7]
  neutralization IC50: 0.373 µg/mL
[8]
  IC50 (µg/ml), pseudovirus neutralization: > 50 µg/mL
[9]
  IC50 (µg/ml), pseudovirus neutralization: > 50 µg/mL
[10]
  IC50 (µg/ml), pseudovirus neutralization: > 50 µg/mL
[11]
  IC50 (µg/ml), pseudovirus neutralization: > 50 µg/mL
[12]
  IC50 (µg/ml), pseudovirus neutralization: 48 µg/mL
[13]
  IC50 (µg/ml), pseudovirus neutralization: > 50 µg/mL
[14]
  IC50: 19 µg/mL
[15]
  IC50: > 50 µg/mL
[16]
  IC50 (µg/ml), pseudovirus neutralization: > 50 µg/mL
[17]
  IC50 (pseudovirus neutralization): > 50 µg/mL
[18]
  IC50: 43 µg/mL
[19]
  IC50: > 50 µg/mL
[20]
  IC50 (µg/ml), pseudovirus neutralization: 29 µg/mL
[21]
  IC50 (µg/ml), pseudovirus neutralization: > 50 µg/mL
[22]
  IC50: > 50 µg/mL
[23]
  IC50 (µg/ml), pseudovirus neutralization: > 50 µg/mL
[24]
  IC50 (µg/ml), pseudovirus neutralization: > 50 µg/mL
[25]
  IC50: > 50 µg/mL
[26]
  IC50 (µg/ml), pseudovirus neutralization: > 50 µg/mL
[27]
  IC50: > 50 µg/mL
[28]
  neutralization IC50: > 50 µg/mL
[29]
  neutralization IC50: > 50 µg/mL
[30]
  neutralization IC50: > 50 µg/mL
[31]
  neutralization IC50: > 50 µg/mL
[32]
  neutralization IC50: > 50 µg/mL
[33]
  neutralization IC50: > 50 µg/mL
[34]
  neutralization IC50: > 50 µg/mL
[35]
  neutralization IC50: > 50 µg/mL
[36]
  neutralization IC50: > 50 µg/mL
[37]
  neutralization IC50: > 50 µg/mL
[38]
  neutralization IC50: > 50 µg/mL
[39]
  neutralization IC50: > 50 µg/mL
[40]
  neutralization IC50: > 50 µg/mL
[41]
  neutralization IC50: > 50 µg/mL
[42]
  neutralization IC50: > 50 µg/mL
[43]
  neutralization IC50: 42 µg/mL
[44]
  neutralization IC50: > 50 µg/mL
[45]
  neutralization IC50: > 50 µg/mL
[46]
  neutralization IC50: 37 µg/mL
[47]
  neutralization IC50: > 50 µg/mL
[48]
  neutralization IC50: > 50 µg/mL
[49]
  neutralization IC50: > 50 µg/mL
[50]
  neutralization IC50: > 50 µg/mL
[51]
  neutralization IC50: > 50 µg/mL
[52]
  neutralization IC50: 46 µg/mL
[53]
  neutralization IC50: > 50 µg/mL
[54]
  neutralization IC50: > 50 µg/mL

## 1496_C09 (PG9) (TCN-109) (antibody)
[1]
  IC50 (µg/ml), pseudovirus neutralization: 0.23 µg/mL
[5]
  IC50: 0.003 µg/mL
[6]
  IC50: 0.32 µg/mL
[8]
  IC50 (µg/ml), pseudovirus neutralization: 29.7 µg/mL
[9]
  IC50 (µg/ml), pseudovirus neutralization: 0.64 µg/mL
[10]
  IC50 (µg/ml), pseudovirus neutralization: 10.6 µg/mL
[13]
  IC50 (µg/ml), pseudovirus neutralization: 1.37 µg/mL
[14]
  IC50: 0.03 µg/mL
[15]
  IC50: 0.79 µg/mL
[18]
  IC50: 1.07 µg/mL
[19]
  IC50: 0.09 µg/mL
[20]
  IC50 (µg/ml), pseudovirus neutralization: 0.027 µg/mL
[21]
  IC50 (µg/ml), pseudovirus neutralization: 1.51 µg/mL
[22]
  IC50: 0.1 µg/mL
[23]
  IC50 (µg/ml), pseudovirus neutralization: 0.03 µg/mL
[25]
  IC50: 0.17 µg/mL
[26]
  IC50 (µg/ml), pseudovirus neutralization: 0.06 µg/mL
[27]
  IC50: 0.64 µg/mL
[29]
  neutralization IC50: 0.05 µg/mL
[32]
  neutralization IC50: 0.24 µg/mL
[34]
  neutralization IC50: 0.37 µg/mL
[36]
  neutralization IC50: 0.03 µg/mL
[37]
  neutralization IC50: 0.03 µg/mL
[38]
  neutralization IC50: 0.65 µg/mL
[41]
  neutralization IC50: 0.16 µg/mL
[42]
  neutralization IC50: 0.18 µg/mL
[43]
  neutralization IC50: 1.19 µg/mL
[44]
  neutralization IC50: 0.62 µg/mL
[45]
  neutralization IC50: 11.2 µg/mL
[46]
  neutralization IC50: 0.01 µg/mL
[47]
  neutralization IC50: 0.27 µg/mL
[48]
  neutralization IC50: 0.07 µg/mL
[51]
  neutralization IC50: 29.6 µg/mL
[52]
  neutralization IC50: 0.08 µg/mL
[54]
  neutralization IC50: 3.08 µg/mL
